Target: growth hormone (GH) receptor (mouse) (UniProt P16882)
Assay: cell-based or functional assay

- GH receptor mRNA expression levels in the liver (quantitative RT-PCR), 60 minutes after 30 µg subcutaneous rGH (% of level prior to administration): 65
- IGF-I-BP3 mRNA expression levels in the liver (quantitative RT-PCR, % of control), 60 minutes after 30 µg subcutaneous rGH: 250 % increase
Substance: recombinant rat growth hormone (from UniProt P01244 27-216) (ligand)

Reference: patent US20060153798A1
